Experimental data taken from patent US12466859B2, “Desmoglein 2 (DSG2) binding proteins and uses therefor” (UNIVERSITY OF WASHINGTON THROUGH ITS CENTER FOR …, priority 2013, dated 2025).
“Also recorded” adds a separate entry of the source.

B1: JO-1: dimeric protein that contains the wild-type Ad3 fiber knob and a self-dimerization domain (SEQ ID NO:27) (protein, listed as Homo sapiens)
chain: MKVSALKEKVSALKEKVSALKEKVSALKEKVSALKEGSGGGSGGGSGGGSNSIALKNNTLWTGPKPEANCIIEYGKQNPDSKLTLILVKNGGIVNGYVTLMGASDYVNTLFKNKNVSINVELYFDATGHILPDSSSLKTDLELKYKQTADFSARGFMPSTTAYPFVLPNAGTHNENYIFGQCYYKASDGALFPLEVTVMLNKRLPDSRTSYVMTFLWSLNAGLAPETTQATLITSPFTFSYIREDD
modifications: dimer
B2: JO-4 (protein)
chain: MKVSALKEKVSALKEKVSALKEKVSALKEKVSALKEGSGGGSGGGSGGGSNSIALKNNTLWTGPKPEANCIIEYGKQNPDSKLTLILVKNGGIVNGYVTLMGASDYVNTLFKNKNVSINVELYFDATGHILPDSSSLKTDLELKYKQTADFSARGFMPSTTAYPFVLPNAGTHNENFIFGQCYYKASDGALFPLEVTVMLNKRLPDSRTSYVMTFLWSLNAGLAPETTQATLITSPFTFSYIREDD

What was measured:
[1] = tested on: TC1-hDSG2 tumors; experiment: PLD therapy with repeated injection in immunocompetent mice with TC1-hDSG2 tumors; format: in vivo, hDSG2 transgenic mice; details: 2 mg/kg i.v. one hour before PLD 1.5 mg/kg; 3rd and 4th cycle, serum antibodies detectable
Experimental: FIG. 11A-11C. Pharmacokinetics, toxicity, and immunogenicity of JO-4. FIG. 11A) Serum clearance of JO-1 and JO-4. hDSG2 transgenic mice with subcutaneous TC1-hDSG2 tumors (˜600 mm^3) were intravenously injected with JO-1 or JO-4 (2 mg/kg) and serum samples were analyzed for by ELISA. N=3. Note that the y-axis has a log scale. FIG. 11B1) Lymphocyte and FIG. 11B2) platelet counts in hDSG2/TC1-hDSG2 transgenic mice after JO-1 or JO-4 injection. N=3. FIG. 11C) Therapy studies in immunocompetent hDSG2 transgenic mice with TC1-hDSG2 tumors. When tumors reached a volume of ˜80 mm^3, JO-1 or JO-4 (2 mg/kg) or PBS was injected intravenously followed one hour later by PLD/Doxil (i.v. 1.5 mg/kg). Treatment was repeated as indicated by arrows. Tumors were then allowed to re-grow for about two weeks. From day 15 on serum anti-JO-1/J)—4 antibodies were detectable by ELISA. Two more treatment cycles were performed at day 28 and day 35. […] The difference between JO-1/PLD vs JO-4/PLD is significant from day 31 on. N=10.
(§1) A549, MDA-MB-231, and ovc316 xenograft tumors were established by injection of the corresponding tumor cells into the mammary fat pad (1:1 with Matrigel) of CB17 mice. […] Tumor volumes were measured three times a week. […]
JO-1 and JO-4 are virus-derived proteins and immunogenic. In immunocompetent mice, serum IgG antibodies against these proteins can be detected by ELISA two weeks after injection (5). […]

[2] = tested on: TNBC MDA-MB-231 tumors; experiment: Enhancement of nab-paclitaxel/cetuximab therapy in orthotopic TNBC MDA-MB-231 tumors; format: in vivo, CB17 SCID-beige mice; details: 2 mg/kg i.v. 1 hour before cetuximab 10 mg/kg i.p. and nab-paclitaxel 5 mg/kg i.v., weekly
Experimental: FIG. 10A-10C. Combination of affinity-enhanced JO-1 versions with chemotherapy. FIG. 10A) Enhancement of irinotecan (I) therapy. The experimental setting was the same as in FIG. 5B. […] N=5. […] Mammary fat pad tumors were established from primary ovarian cancer ovc316 cells. Treatment was started when tumors reached a volume of 100 mm^3. Mice were injected intravenously with 2 mg/kg JO-1 or with 0.5 mg/kg JO-4, followed by an intravenous injection of PEGylated liposomal doxorubicin (PLD) (1 mg/kg) one hour later. Treatment was repeated weekly. […] A total of 4×10^6 TNBC MDA-MB-231 cells were injected into the mammary fat pad of CB17 SCID-beige mice. JO-4 (2 mg/kg) was intravenously injected 1 hour before the application of cetuximab (C) (10 mg/kg, i.p.) and nab-paclitaxel (nab-P) (5 mg/kg, i.v.). Treatment was given weekly. N=10 P<0.01 at day 25 for nab-P+C vs JO-4+nab-P+C.
as §1, with “mice. TC1-DSG2 tumors were established by subcutaneous injection of TC1-DSG2 cells into DSG2 transgenic mice.” for “mice.”

[3] = target: T1, DSG2 (Homo sapiens, UniProt Q14126); experiment: Surface plasmon resonance of Ad3 fiber knobs on immobilized DSG2; format: binding; details: affinity to DSG2
T1 construct: Western blot using soluble recombinant DSG2 as a probe; purchased Leinco Technologies, Inc. (St. Louis, MO)
T1 sequence (Q14126 50-609 limits assumed): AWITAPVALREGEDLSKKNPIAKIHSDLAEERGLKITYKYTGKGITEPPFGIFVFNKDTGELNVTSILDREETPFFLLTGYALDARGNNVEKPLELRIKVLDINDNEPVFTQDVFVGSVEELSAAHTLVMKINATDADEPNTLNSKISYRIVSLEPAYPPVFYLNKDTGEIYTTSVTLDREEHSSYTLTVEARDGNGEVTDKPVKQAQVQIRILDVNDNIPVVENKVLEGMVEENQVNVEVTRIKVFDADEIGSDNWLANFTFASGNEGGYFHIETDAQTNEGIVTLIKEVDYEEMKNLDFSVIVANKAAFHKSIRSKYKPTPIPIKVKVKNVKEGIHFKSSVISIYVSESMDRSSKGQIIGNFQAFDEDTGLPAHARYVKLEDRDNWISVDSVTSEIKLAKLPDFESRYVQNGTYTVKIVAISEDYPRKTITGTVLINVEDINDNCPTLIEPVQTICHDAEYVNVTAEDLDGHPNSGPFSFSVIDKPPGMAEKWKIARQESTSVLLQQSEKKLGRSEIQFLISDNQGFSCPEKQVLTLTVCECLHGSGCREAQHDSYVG
Experimental: FIG. 7A-7B. SPR analysis of non-dimerized Ad3 fiber knob interactions with DSG2. FIG. 7A) DSG2 was immobilized on sensorchips, and background was automatically subtracted from the control flow cell. The Ad3 fiber knobs (w/o dimerization domain: “noDD”) were injected for 3 minutes at 2.5 μg/ml followed by a 2.5 minutes dissociation period. FIG. 7B) Summary of SPR data. […] The extracted data are resumed in the table. Wt=Ad3 fiber knob without mutations FIG. 8A-8G. Electron microscopy and 3D structure of Ad3 fiber knob mutant JO-2.
Surface Plasmon Resonance: Acquisitions were done on a BIAcore 3000 instrument. HBS-N (GE-Healthcare, Pittsburgh, PA) supplemented with 2 mM CaCl2) was used as running buffer in all experiments at a flow rate of 5 [l/min. Immobilization on CM4 sensorchip (BIAcore) was performed using DSG2 at 10 μg/ml diluted in 10 mM Acetate buffer pH 4.5 injected for 10 minutes on ethyl(dimethylaminopropyl) carbodiimide (EDC)/N-Hydroxysuccinimide (NHS) activated flow-cell. A control flow-cell was activated by (EDC/NHS) and inactivated by ethanolamine. Different concentrations of Ad3 fiber knob proteins were injected for 3 minutes association followed by 2.5 minutes dissociation time, and the signal was automatically subtracted from the background of the ethanolamine deactivated EDC-NHS flow cell. Kinetic and affinity constants were calculated using the BIAeval software.

| Molecule | Enhancing effect on PLD therapy after repeated treatment cycles [1] | Enhancement of nab-paclitaxel/cetuximab therapy [2] | Kd [3] [nM] |
| --- | --- | --- | --- |
| B1 | enhancing effect; also recorded: continued to be effective |  |  |
| B2 | significantly stronger; also recorded: continued to be effective | significantly increased; also recorded: enhances therapy | 11.4 |
